Measurements from patent US20260232769A1 (WUXI BIOLOGICS IRELAND, published 2026).

T1: IL-2Rβ/γc complex (intermediate affinity receptor) on primary human CD8+ T cells (human, UniProt P14784 27-551; P31785 23-369)
T1 sequence (looked up) 1: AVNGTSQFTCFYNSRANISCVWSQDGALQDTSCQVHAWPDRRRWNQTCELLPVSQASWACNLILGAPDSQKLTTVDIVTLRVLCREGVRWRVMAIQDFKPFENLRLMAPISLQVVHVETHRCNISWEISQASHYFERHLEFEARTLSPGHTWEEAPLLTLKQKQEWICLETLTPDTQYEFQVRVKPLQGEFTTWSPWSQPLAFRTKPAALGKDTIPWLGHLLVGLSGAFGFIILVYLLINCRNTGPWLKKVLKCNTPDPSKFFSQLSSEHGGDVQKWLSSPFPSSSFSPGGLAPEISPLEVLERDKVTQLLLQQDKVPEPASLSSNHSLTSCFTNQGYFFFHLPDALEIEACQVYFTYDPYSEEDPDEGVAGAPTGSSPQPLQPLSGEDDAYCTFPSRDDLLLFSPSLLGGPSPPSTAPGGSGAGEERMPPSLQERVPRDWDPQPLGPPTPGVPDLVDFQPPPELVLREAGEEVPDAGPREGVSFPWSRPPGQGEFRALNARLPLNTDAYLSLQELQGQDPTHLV
T1 sequence (looked up) 2: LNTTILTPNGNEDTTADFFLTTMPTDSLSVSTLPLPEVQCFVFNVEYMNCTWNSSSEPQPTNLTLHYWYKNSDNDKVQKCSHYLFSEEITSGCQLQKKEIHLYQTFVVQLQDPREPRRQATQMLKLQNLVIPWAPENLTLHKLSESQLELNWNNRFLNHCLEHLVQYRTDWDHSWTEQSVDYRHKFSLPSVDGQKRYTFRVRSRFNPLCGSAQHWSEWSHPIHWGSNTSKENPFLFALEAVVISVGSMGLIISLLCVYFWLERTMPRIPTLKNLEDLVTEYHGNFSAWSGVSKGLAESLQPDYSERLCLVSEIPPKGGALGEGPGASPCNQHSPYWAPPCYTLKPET


Molecular target: T1, IL-2Rβ/γc complex (intermediate …)
Test: cell-based or functional assay

Binder | Potency reduction, pSTAT5, human activated CD8+ T
W3XX115-T2U10.Z73-56.uIgG4V322 (Fc fusion) chain 1: APTSSSTKKTQLQLEHLLLDLQMILNGINNYDNPKLTRMLTIKFYMPKKATELKHLQCLEEELKPLEEVLNLAQSKNFHLRPRKLISNINVIVLELKGSETTFMCEYADETATIVEFLNRWITFCQSILESKYGPPCPPCPAPEAAGGPSVFLFPPKPKDTLMISRTPEVTCVVVDVSQEDPEVQFNWYVDGVEVHNAKTKPREEQFNSTYRVVSVLTVLHQDWLNGKEYKCKVSNKGLPSSIEKTISKAKGQPREPQVYTLPPCQEEMTKNQVSLWCLVKGFYPSDIAVEWESNGQPENNYKTTPPVLDSDGSFFLYSRLTVDKSRWQEGNVFSCSVMHEALHNHYTQKSLSLSLGK chain 2: QVQLVESGGGVVQPGGSLRLSCAASDSIDSLVNMGWYRQAPGKQRELVALIATYITHYADFVKGRFTISRDNSKNTLYLQMNSLRAEDTAVYYCYARNIIVDYWGQGTLVTVSSGGGGSGGGGSGGGGSQVQLVESGGGVVQPGGSLRLSCAASDSIDSLVNMGWYRQAPGKQRELVALIATYITHYADFVKGRFTISRDNSKNTLYLQMNSLRAEDTAVYYCYARNIIVDYWGQGTLVTVSSESKYGPPCPPCPAPEAAGGPSVFLFPPKPKDTLMISRTPEVTCVVVDVSQEDPEVQFNWYVDGVEVHNAKTKPREEQFNSTYRVVSVLTVLHQDWLNGKEYKCKVSNKGLPSSIEKTISKAKGQPREPQVCTLPPSQEEMTKNQVSLSCAVKGFYPSDIAVEWESNGQPENNYKTTPPVLDSDGSFFLVSRLTVDKSRWQEGNVFSCSVMHEALHNHYTQKSLSLSLG | 2.5 fold
W3XX115-T2U10.Z73-61.uIgG4V322 (Fc fusion) chain 1: APTSSSTKKTQLQLEHLLLDLQMILNGINNYDNPKLTRMLTIKFYMPKKATELKHLQCLEEELKPLEEVLNLAQSKNFHLRPRDLISNINVDVLELKGSETTFMCEYADETATIVEFLNRWITFCQSILESKYGPPCPPCPAPEAAGGPSVFLFPPKPKDTLMISRTPEVTCVVVDVSQEDPEVQFNWYVDGVEVHNAKTKPREEQFNSTYRVVSVLTVLHQDWLNGKEYKCKVSNKGLPSSIEKTISKAKGQPREPQVYTLPPCQEEMTKNQVSLWCLVKGFYPSDIAVEWESNGQPENNYKTTPPVLDSDGSFFLYSRLTVDKSRWQEGNVFSCSVMHEALHNHYTQKSLSLSLGK chain 2: QVQLVESGGGVVQPGGSLRLSCAASDSIDSLVNMGWYRQAPGKQRELVALIATYITHYADFVKGRFTISRDNSKNTLYLQMNSLRAEDTAVYYCYARNIIVDYWGQGTLVTVSSGGGGSGGGGSGGGGSQVQLVESGGGVVQPGGSLRLSCAASDSIDSLVNMGWYRQAPGKQRELVALIATYITHYADFVKGRFTISRDNSKNTLYLQMNSLRAEDTAVYYCYARNIIVDYWGQGTLVTVSSESKYGPPCPPCPAPEAAGGPSVFLFPPKPKDTLMISRTPEVTCVVVDVSQEDPEVQFNWYVDGVEVHNAKTKPREEQFNSTYRVVSVLTVLHQDWLNGKEYKCKVSNKGLPSSIEKTISKAKGQPREPQVCTLPPSQEEMTKNQVSLSCAVKGFYPSDIAVEWESNGQPENNYKTTPPVLDSDGSFFLVSRLTVDKSRWQEGNVFSCSVMHEALHNHYTQKSLSLSLG | 14.2 fold
W3XX115-T2U10.Z73-58.uIgG4V322 (Fc fusion) chain 1: APTSSSTKKTQLQLEHLLLDLQMILNGINNYDNPKLTRMLTIKFYMPKKATELKHLQCLEEELKPLEEVLNLAQSKNFHLRPRDLISKINVIVLELKGSETTFMCEYADETATIVEFLNRWITFCQSILESKYGPPCPPCPAPEAAGGPSVFLFPPKPKDTLMISRTPEVTCVVVDVSQEDPEVQFNWYVDGVEVHNAKTKPREEQFNSTYRVVSVLTVLHQDWLNGKEYKCKVSNKGLPSSIEKTISKAKGQPREPQVYTLPPCQEEMTKNQVSLWCLVKGFYPSDIAVEWESNGQPENNYKTTPPVLDSDGSFFLYSRLTVDKSRWQEGNVFSCSVMHEALHNHYTQKSLSLSLGK chain 2: QVQLVESGGGVVQPGGSLRLSCAASDSIDSLVNMGWYRQAPGKQRELVALIATYITHYADFVKGRFTISRDNSKNTLYLQMNSLRAEDTAVYYCYARNIIVDYWGQGTLVTVSSGGGGSGGGGSGGGGSQVQLVESGGGVVQPGGSLRLSCAASDSIDSLVNMGWYRQAPGKQRELVALIATYITHYADFVKGRFTISRDNSKNTLYLQMNSLRAEDTAVYYCYARNIIVDYWGQGTLVTVSSESKYGPPCPPCPAPEAAGGPSVFLFPPKPKDTLMISRTPEVTCVVVDVSQEDPEVQFNWYVDGVEVHNAKTKPREEQFNSTYRVVSVLTVLHQDWLNGKEYKCKVSNKGLPSSIEKTISKAKGQPREPQVCTLPPSQEEMTKNQVSLSCAVKGFYPSDIAVEWESNGQPENNYKTTPPVLDSDGSFFLVSRLTVDKSRWQEGNVFSCSVMHEALHNHYTQKSLSLSLG | 26.1 fold
W3XX115-T2U10.Z73-59.uIgG4V322 (Fc fusion) chain 1: APTSSSTKKTQLQLEHLLLDLQMILNGINNYDNPKLTRMLTIKFYMPKKATELKHLQCLEEELKPLEEVLNLAQSKNFHLRPRDLISNINEIVLELKGSETTFMCEYADETATIVEFLNRWITFCQSILESKYGPPCPPCPAPEAAGGPSVFLFPPKPKDTLMISRTPEVTCVVVDVSQEDPEVQFNWYVDGVEVHNAKTKPREEQFNSTYRVVSVLTVLHQDWLNGKEYKCKVSNKGLPSSIEKTISKAKGQPREPQVYTLPPCQEEMTKNQVSLWCLVKGFYPSDIAVEWESNGQPENNYKTTPPVLDSDGSFFLYSRLTVDKSRWQEGNVFSCSVMHEALHNHYTQKSLSLSLGK chain 2: QVQLVESGGGVVQPGGSLRLSCAASDSIDSLVNMGWYRQAPGKQRELVALIATYITHYADFVKGRFTISRDNSKNTLYLQMNSLRAEDTAVYYCYARNIIVDYWGQGTLVTVSSGGGGSGGGGSGGGGSQVQLVESGGGVVQPGGSLRLSCAASDSIDSLVNMGWYRQAPGKQRELVALIATYITHYADFVKGRFTISRDNSKNTLYLQMNSLRAEDTAVYYCYARNIIVDYWGQGTLVTVSSESKYGPPCPPCPAPEAAGGPSVFLFPPKPKDTLMISRTPEVTCVVVDVSQEDPEVQFNWYVDGVEVHNAKTKPREEQFNSTYRVVSVLTVLHQDWLNGKEYKCKVSNKGLPSSIEKTISKAKGQPREPQVCTLPPSQEEMTKNQVSLSCAVKGFYPSDIAVEWESNGQPENNYKTTPPVLDSDGSFFLVSRLTVDKSRWQEGNVFSCSVMHEALHNHYTQKSLSLSLG | 18.9 fold
W3XX115-T2U10.Z73-62.uIgG4V322 (Fc fusion) chain 1: APTSSSTKKTQLQLEHLLLDLQMILNGINNYDNPKLTRMLTIKFYMPKKATELKHLQCLEEELKPLEEVLNLAQSKNFHLRPRDLISNINVIVDELKGSETTFMCEYADETATIVEFLNRWITFCQSILESKYGPPCPPCPAPEAAGGPSVFLFPPKPKDTLMISRTPEVTCVVVDVSQEDPEVQFNWYVDGVEVHNAKTKPREEQFNSTYRVVSVLTVLHQDWLNGKEYKCKVSNKGLPSSIEKTISKAKGQPREPQVYTLPPCQEEMTKNQVSLWCLVKGFYPSDIAVEWESNGQPENNYKTTPPVLDSDGSFFLYSRLTVDKSRWQEGNVFSCSVMHEALHNHYTQKSLSLSLGK chain 2: QVQLVESGGGVVQPGGSLRLSCAASDSIDSLVNMGWYRQAPGKQRELVALIATYITHYADFVKGRFTISRDNSKNTLYLQMNSLRAEDTAVYYCYARNIIVDYWGQGTLVTVSSGGGGSGGGGSGGGGSQVQLVESGGGVVQPGGSLRLSCAASDSIDSLVNMGWYRQAPGKQRELVALIATYITHYADFVKGRFTISRDNSKNTLYLQMNSLRAEDTAVYYCYARNIIVDYWGQGTLVTVSSESKYGPPCPPCPAPEAAGGPSVFLFPPKPKDTLMISRTPEVTCVVVDVSQEDPEVQFNWYVDGVEVHNAKTKPREEQFNSTYRVVSVLTVLHQDWLNGKEYKCKVSNKGLPSSIEKTISKAKGQPREPQVCTLPPSQEEMTKNQVSLSCAVKGFYPSDIAVEWESNGQPENNYKTTPPVLDSDGSFFLVSRLTVDKSRWQEGNVFSCSVMHEALHNHYTQKSLSLSLG | 6.5 fold
W3XX115-T2U10.Z73-60.uIgG4V322 (Fc fusion) chain 1: APTSSSTKKTQLQLEHLLLDLQMILNGINNYDNPKLTRMLTIKFYMPKKATELKHLQCLEEELKPLEEVLNLAQSKNFHLRPRDLISNINVRVLELKGSETTFMCEYADETATIVEFLNRWITFCQSILESKYGPPCPPCPAPEAAGGPSVFLFPPKPKDTLMISRTPEVTCVVVDVSQEDPEVQFNWYVDGVEVHNAKTKPREEQFNSTYRVVSVLTVLHQDWLNGKEYKCKVSNKGLPSSIEKTISKAKGQPREPQVYTLPPCQEEMTKNQVSLWCLVKGFYPSDIAVEWESNGQPENNYKTTPPVLDSDGSFFLYSRLTVDKSRWQEGNVFSCSVMHEALHNHYTQKSLSLSLGK chain 2: QVQLVESGGGVVQPGGSLRLSCAASDSIDSLVNMGWYRQAPGKQRELVALIATYITHYADFVKGRFTISRDNSKNTLYLQMNSLRAEDTAVYYCYARNIIVDYWGQGTLVTVSSGGGGSGGGGSGGGGSQVQLVESGGGVVQPGGSLRLSCAASDSIDSLVNMGWYRQAPGKQRELVALIATYITHYADFVKGRFTISRDNSKNTLYLQMNSLRAEDTAVYYCYARNIIVDYWGQGTLVTVSSESKYGPPCPPCPAPEAAGGPSVFLFPPKPKDTLMISRTPEVTCVVVDVSQEDPEVQFNWYVDGVEVHNAKTKPREEQFNSTYRVVSVLTVLHQDWLNGKEYKCKVSNKGLPSSIEKTISKAKGQPREPQVCTLPPSQEEMTKNQVSLSCAVKGFYPSDIAVEWESNGQPENNYKTTPPVLDSDGSFFLVSRLTVDKSRWQEGNVFSCSVMHEALHNHYTQKSLSLSLG | 10 fold
